Data set [1] in a line: Pharmacokinetics of long-acting conjugates of GLP-2 derivatives in SD rat (Example 5). Type of data set: in vivo. Conditions: normal SD rats, single subcutaneous injection 2.52 mg/kg, serum, ELISA. As to the method:
The pharmacokinetics of the long-acting conjugates of GLP-2 derivatives were compared in normal rats.
Pharmacokinetic parameters thereof were calculated using the serum concentrations.
(In general: In an ELISA, binding on a coated surface is turned into a signal by an enzyme label.)

A further data set addresses T1, human GLP-2 receptor (Homo sapiens, UniProt O95838).
T1 construct: host or cells: CHO-K1
T1 sequence (O95838 1-553): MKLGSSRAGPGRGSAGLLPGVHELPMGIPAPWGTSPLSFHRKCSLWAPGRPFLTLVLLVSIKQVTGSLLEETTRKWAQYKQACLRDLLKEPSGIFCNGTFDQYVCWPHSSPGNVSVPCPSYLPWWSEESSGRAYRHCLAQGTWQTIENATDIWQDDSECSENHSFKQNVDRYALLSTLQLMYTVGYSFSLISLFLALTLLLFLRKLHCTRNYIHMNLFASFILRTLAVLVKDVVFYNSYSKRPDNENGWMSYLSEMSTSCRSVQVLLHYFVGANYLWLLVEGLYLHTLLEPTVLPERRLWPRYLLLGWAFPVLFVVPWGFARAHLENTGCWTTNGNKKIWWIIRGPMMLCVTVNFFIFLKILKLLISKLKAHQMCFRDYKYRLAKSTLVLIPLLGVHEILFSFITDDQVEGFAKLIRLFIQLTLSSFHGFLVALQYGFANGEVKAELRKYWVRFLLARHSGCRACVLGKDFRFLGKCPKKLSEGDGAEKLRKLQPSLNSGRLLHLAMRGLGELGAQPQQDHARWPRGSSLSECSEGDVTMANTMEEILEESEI
Kind of data set: In vitro activity: cAMP accumulation (LANCE cAMP kit) in CHO-K1 cells expressing human GLP-2 receptor. The data set is classed as cell-based. Conditions: for In vitro activity compared to human GLP-2 (%) (relative titer), GLP-2 derivative: GLP-2 derivative / Teduglutide. The text has this: In order to measure the activities of the GLP-2 derivatives and the long-acting conjugates of GLP-2 derivatives, which had been obtained in the previous Examples, a cell line in which a GLP-2 receptor is transformed was used to measure the cell activity in vitro. The cell line is one that has been transformed to express a human GLP-2 receptor in Chinese hamster ovary (CHO)—K1, and thus is suitable for measuring the activity of GLP-2 (DiscoverX, U.S.A.).
In order to measure the activities of the GLP-2 derivatives and the long-acting conjugates thereof, human GLP-2 and Teduglutide (Gattex®, Shire) were subjected to a 3-fold serial dilution from 166.7 nM to 0.0028 nM; the GLP-2 derivatives were subjected to a 3-fold serial dilution from 500 nM to 0.0085 nM; and the long-acting conjugates of GLP-2 derivatives were subjected to a 3-fold serial dilution from 3000 nM to 0.0508 nM. The culture solution was removed from the cultured CHO-K1 cells, in which the human GLP-2 receptor is expressed, and then each of the serially diluted material was added to the cells in an amount of 5 μL, respectively. Thereafter, the buffer (5 μL) containing a cAMP antibody was added and then the cultivation was conducted at room temperature for 15 minutes. Then, a detection mix (10 μL) containing a cell lysis buffer was added thereto to dissolve the cells and reacted at room temperature for 60 minutes. The cell lysates, upon completion of the reaction, were applied to a LANCE cAMP kit (PerkinElmer, U.S.A.) to calculate the EC50 value via accumulated cAMP, and the values were compared with one another.
On the technique in general: cAMP levels reflect the balance of adenylyl cyclase and phosphodiesterase activity.

For data set [2] the following is noted: inactivation by DPP IV; Bolette H. et al. 2000; cited from earlier work.
The nature of a further data set: in vivo. Conditions: SD, rat, sc, 2.5 mg/kg.
A further data set concerns C57BL/6 mice. Nature of the data set: Effect of increasing in vivo intestinal weight in normal mice (Example 7). Conditions: 13 days, Teduglutide 7.5 & 15 nmol/kg/BID, conjugate 4.15, 7.5, 15, 30 nmol/kg/Q2D. On the procedure: Five mice were placed in each group and autopsied after 13 days of the administrations. The small intestines were perfused, and the weight of the small intestines and the length of the villi within the small intestines were measured.

The nature of data set [3]: Comparison of pharmacokinetics between long-acting conjugate of GLP-2 derivative and Teduglutide in SD rat (Example 6). Conditions: serum, sc, 2.5 mg/kg.
Method: 8-week-old normal rates were divided into a group administering Teduglutide (2.5 mg/kg) and a group administering the long-acting conjugate of CA GLP-2 RK (3.4K PEG) derivative (0.705 mg/kg). The test materials were subcutaneously injected once into the normal rats in each group (3 rats/group). Thereafter, whole blood was obtained by collecting blood samples from the coccygeal vein at 0.25, 0.5, 1, 1.5, 2, 3, 4, 6, 8, and 24 hours for the group administering Teduglutide; and at 4, 8, 24, 48, 72, 96, 120, 144, 168, 192, 216, 240, 264, 288, 312, and 336 hours for the group administering the long-acting conjugate of CA GLP-2 RK derivative. The whole blood was placed in a 1.5 mL microtube, centrifuged at room temperature at 5,000 rpm for 10 minutes, and then sera were separated and stored at −20° C. Concentrations of the stored sera from each group were quantified using an ELISA analysis method. For Teduglutide, a GLP-2 ELISA Kit (Alpco, #48-GP2HU-E01.1) was used. For the long-acting conjugate of CA GLP-2 RK derivative, a biotin-labeled GLP-2 polyclonal antibody (Phoenix Pharmaceuticals, #B-028-14) was bound to a plate coated with Streptavidin (Roche, #11645692001), and then reacted with the serum for 1 hour. After washing, anti-human IgG4-HPR (Alpha Diagnosis, #10124) was added thereto and allowed to react at room temperature for 1 hour. Thereafter, the resultants were subjected to a color reaction using a TMB reagent, and the absorbance was measured at a wavelength of 450 nm. Pharmacokinetic parameters thereof were calculated using the serum concentrations.
Where [4] appears, read: relative titer from cAMP EC50, CHO-K1 cells expressing human GLP-2 receptor.

Square brackets hold non-standard residues; d marks the D form. Side chains are listed from the residue outwards. Ends that are not written are not given here. * marks the point of attachment. Acetyl(2-(4-imidazolyl)) = O=C(Cc1c[nH]cn1)*

In data set [1], “Long-acting conjugate of CA GLP-2 RC (10K PEG) derivative: CA-GLP-2 RC covalently linked to the immunoglobulin Fc by 10 kDa PEG at the 34th cysteine ([Acetyl(2-(4-imidazolyl))]GDGSFSDEMNTILDNLAARDFINWLIQTRITDC([PEG 10 kDa-immunoglobulin Fc]); also: Cys34 linked via 10 kDa PEG to immunoglobulin Fc)” yielded an AUClast of 1384.9499 ± 186.8176 µg·h/mL, a Cmax of 13350.4 ± 3611.4 ng/mL, an MRTlast of 88.9 ± 9.4 h and a T1/2 of 54.4 ± 6.9 h. Moreover, in data set [1], the Tmax is 26.7 ± 20.1 h. For the same compound, in the data set with human GLP-2 receptor (CHO-K1 cells expressing human GLP-2 receptor, cAMP), the “Activation of the GLP-2 receptor / relative potency (in words)” value is reported as “higher activities compared to the long-acting conjugate of GLP-2 derivative (CA GLP-2 KC)”. In the data set with human GLP-2 receptor (relative titer from cAMP EC50, CHO-K1 cells expressing human GLP-2 receptor, long-acting conjugates), the “In vitro activity compared to human GLP-2 (%) (relative titer), conjugate of GLP-2 derivative” value came out at 46.0%.
Take Glucagon-like peptide-2 [GLP-2]: the in vivo half-life in data set [2] is at most 7 min.
With `CC[C@H](C)[C@H](NC(=O)[C@H](Cc1ccccc1)NC(=O)[C@H](CC(=O)O)NC(=O)[C@H](CCCNC(=N)N)NC(=O)[C@H](C)NC(=O)[C@H](C)NC(=O)[C@H](CC(C)C)NC(=O)[C@H](CC(N)=O)NC(=O)[C@H](CC(=O)O)NC(=O)[C@H](CC(C)C)NC(=O)[C@@H](NC(=O)[C@@H](NC(=O)[C@H](CC(N)=O)NC(=O)[C@H](CCSC)NC(=O)[C@H](CCC(=O)O)NC(=O)[C@H](CC(=O)O)NC(=O)[C@H](CO)NC(=O)[C@H](Cc1ccccc1)NC(=O)[C@H](CO)NC(=O)CNC(=O)[C@H](CC(=O)O)NC(=O)CNC(=O)[C@@H](N)Cc1c[nH]cn1)[C@@H](C)O)[C@@H](C)CC)C(=O)N[C@@H](CC(N)=O)C(=O)N[C@@H](Cc1c[nH]c2ccccc12)C(=O)N[C@@H](CC(C)C)C(=O)N[C@H](C(=O)N[C@@H](CCC(N)=O)C(=O)N[C@H](C(=O)N[C@@H](CCCCN)C(=O)N[C@H](C(=O)N[C@H](C(=O)N[C@@H](CC(=O)O)C(=O)O)[C@@H](C)O)[C@@H](C)CC)[C@@H](C)O)[C@@H](C)CC` [Teduglutide], in the data set “in vivo”, the AUC(0-t) was 2600 ± 581 ng·h/mL, the Cmax is 1680 ± 744 ng/mL, the MRT last was found to be 1.4 ± 0.1 h and the time to peak (Tmax) was 42 ± 18 min. For the same compound, at human GLP-2 receptor (setting [4]), the “In vitro activity compared to human GLP-2 (%) (relative titer), GLP-2 derivative” value stood at 147.5%. Further, in the data set with C57BL/6 mice, the “length of the villi within the small intestines” value was “increase in the length of the villi” and the “weight of the small intestines” value is “increased in a dose-dependent manner”. The compound also had a half-life in data set [3] of 36 ± 6 min.
For “CA GLP-2 KC: GLP-2 derivative SEQ ID NO: 2: X1 imidazoacetyldeshistidine, X2 glycine, X30 lysine, X34 cysteine (XGDGSFSDEMNTILDNLAARDFINWLIQTKITDC; X1 imidazoacetyldeshistidine; GLP-2 derivative; (1) Xaa is imidazoacetyldeshistidine)”, the “In vitro activity compared to human GLP-2 (%) (relative titer), GLP-2 derivative” value with human GLP-2 receptor (setting [4]) is reported as 149.3%.
The same measure, in the same setting: with “CA GLP-2 KK: GLP-2 derivative SEQ ID NO: 3: X1 imidazoacetyldeshistidine, X2 glycine, X30 lysine, X34 lysine (XGDGSFSDEMNTILDNLAARDFINWLIQTKITDK; X1 imidazoacetyldeshistidine; GLP-2 derivative; (1) Xaa is imidazoacetyldeshistidine)” the figure was 205.6%; with “CA GLP-2 RK: GLP-2 derivative SEQ ID NO: 4: X1 imidazoacetyldeshistidine, X2 glycine, X30 arginine, X34 lysine ([Acetyl(2-(4-imidazolyl))]GDGSFSDEMNTILDNLAARDFINWLIQTRITDK)”, 333.2%.

As usually defined, the Cmax is the peak of the concentration-time curve. The term Tmax denotes the time at which the peak concentration occurs. What is called AUC(0-t) is the area under the concentration-time curve up to a stated or last time point. Read a low AUC(0-t) as low exposure. The MRT last is the average time that molecules of a dose stay in the body. The term half-life denotes the time in which the quantity being followed falls by half.
